Data reported in publication PMC6545606.
pKd: −log10 of the molar value.

What was measured:
[1] = molecular target: K48-linked diubiquitin (ubiquitin_(K48R) joined to ubiquitin_(G76C)), fluorescently labelled (human) (UniProt P0CG47); experiment: other fluorescence titration
[2] = molecular target: K63-linked diubiquitin (ubiquitin_(K63R) joined to ubiquitin_(G76C)), fluorescently labelled (human) (UniProt P0CG47); experiment: other fluorescence titration
[3] = molecular target: ubiquitin_(G76C), fluorescently labelled (human) (UniProt P0CG47); experiment: other fluorescence titration
[4] = molecular target: K48-linked diubiquitin (Homo sapiens) (UniProt P0CG47); conditions: cited from earlier work
ubiquitin (Homo sapiens) = ubiquitin (Homo sapiens) (UniProt P0CG47); conditions: cited from earlier work

Sequence of S5a (P55036 whole entry): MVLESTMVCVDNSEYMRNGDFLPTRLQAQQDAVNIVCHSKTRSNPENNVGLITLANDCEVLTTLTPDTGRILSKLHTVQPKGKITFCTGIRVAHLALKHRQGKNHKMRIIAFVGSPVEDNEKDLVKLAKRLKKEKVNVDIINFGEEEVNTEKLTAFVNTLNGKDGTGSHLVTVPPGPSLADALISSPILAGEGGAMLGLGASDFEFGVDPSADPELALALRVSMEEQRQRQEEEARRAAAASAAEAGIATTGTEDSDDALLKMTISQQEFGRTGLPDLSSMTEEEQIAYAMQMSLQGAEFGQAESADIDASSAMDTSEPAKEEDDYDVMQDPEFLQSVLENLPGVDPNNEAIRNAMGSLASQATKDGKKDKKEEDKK

| Substance | pKd [1] | pKd [2] | pKd [3] | pKd [4] | pKd (ubiquitin (Homo sapiens)) |
| --- | --- | --- | --- | --- | --- |
| StoD (S. Typhi outer protein D), full-length, untagged (enzyme) | 4.82 | 5.25 | 4.26 | – | – |
| S5a (from UniProt P55036) | – | – | – | 5.05 | 4.14 |
